Data published in article PMC5714209.

Biological target: APOBEC3G (human), Q9HC16
Test: SEC
Details: remark: other sources report otherwise

B1: APOBEC3G, Q9HC16 1-384 (enzyme)
chain: MKPHFRNTVERMYRDTFSYNFYNRPILSRRNTVWLCYEVKTKGPSRPPLDAKIFRGQVYSELKYHPEMRFFHWFSKWRKLHRDQEYEVTWYISWSPCTKCTRDMATFLAEDPKVTLTIFVARLYYFWDPDYQEALRSLCQKRDGPRATMKIMNYDEFQHCWSKFVYSQRELFEPWNNLPKYYILLHIMLGEILRHSMDPPTFTFNFNNEPWVRGRHETYLCYEVERMHNDTWVLLNQRRGFLCNQAPHKHGFLEGRHAELCFLDVIPFWKLDLDQDYRVTCFTSWSPCFSCAQEMAKFISKNKHVSLCIFTARIYDDQGRCQEGLRTLAEAGAKISIMTYSEFKHCWDTFVDHQGCPFQPWDGLDEHSQDLSGRLRAILQNQEN
stoichiometry N: 2
